In patent US20160159862A1 (PROTAGONIST THERAPEUTICS, published 2016):
Numbered stars: 1 amine (or outer) side, 2 acyl side, 3 side chain; on linkers, the order of the positions; unused ones are H or OH. Bridge positions count the residues as written; N and C are the ends. Square brackets hold non-standard residues; d marks the D form. Ends that are not written are not given here. Phe(4-OMe) = COc1ccc(C[C@H](N[*:1])C(=O)[*:2])cc1; Phe(4-COOH) = N[C@@H](Cc1ccc(C(=O)O)cc1)C(=O)O; Phe(2-CONH2) = NC(=O)c1ccccc1C[C@H](N)C(=O)O; 2Nal = N[C@@H](Cc1ccc2ccccc2c1)C(=O)O; Diglycolyl = O=C(COCC(=O)[*:2])[*:1]; NMeR = CN[C@@H](CCCNC(=N)N)C(=O)O; Tic = O=C(O)[C@@H]1Cc2ccccc2CN1; Cit = NC(=O)NCCC[C@H](N)C(=O)O; Pen = CC(C)(S)[C@H](N)C(=O)O; Dab = NCC[C@H](N)C(=O)O; Dap = NC[C@H](N)C(=O)O

Target: α4β7 integrin on human cells (human, UniProt P13612 34-1032; P26010 20-798)
Experiment: cell-based or functional assay

Binder	α4β7 cell (Hu) IC50 [nM]
Ac-[Pen][NMeR]SDTL[Pen]W[Cit][dK]-NH2 (disulfide 1-7 (inferred); also: homodimer linked by DIG) [SEQ ID NO 84]	> 10
Ac-[Pen][NMeR]SDTL[Pen]WE[Dap] (disulfide 1-7 (inferred); also: Ac written after C-terminal Dap, place unclear) [SEQ ID NO 60]	> 1000
Ac-[Pen][NMeR]SDTL[Pen]WE[Dab] (disulfide 1-7 (inferred); not fully specified (residue 10); printed as Ac-Pen-(N-Me-R)-S-D-T-L-Pen-W-E-Dab-Ac) [SEQ ID NO 62]	> 1000
Ac-[Pen][NMeR]SDTL[Pen]WPK-NH2 (disulfide 1-7 (inferred); also: homodimer linked by DIG) [SEQ ID NO 95]	> 100
Ac-[Pen][NMeR]SDTLC[Tic][dE][dK]-NH2 (disulfide 1-7 (inferred); also: homodimer linked by DIG) [SEQ ID NO 93]	> 500
Ac-[Pen][NMeR]SDTL[Pen]W[dF][dK]-NH2 (disulfide 1-7 (inferred); also: homodimer linked by DIG) [SEQ ID NO 91]	> 100
Ac-[Pen][NMeR]SDTL[Pen][Phe(2-CONH2)][dE][dK]-NH2 (disulfide 1-7 (inferred); also: homodimer linked by DIG) [SEQ ID NO 98]	> 50
Ac-[Pen][NMeR]SDTL[Pen]W[dE][dK]-NH2 (disulfide 1-7 (inferred); also: homodimer linked by IDA, IDA-Biotine) [SEQ ID NO 71]	> 25
Ac-[dK]C[NMeR]SDTLCW[dK]-NH2 (disulfide 2-8 (inferred); not fully specified; printed as DIG-(Ac-k-C-(N-Me-R)-S-D-T-L-C-W-k-NH2)2-DIG) [SEQ ID NO 5]	> 50
Ac-[Pen][NMeR]SDTL[Pen]WE[Dap]-NH2 (disulfide 1-7 (inferred)) [SEQ ID NO 59]	> 10000
Ac-[Pen][NMeR]SDTL[Pen]WE[Dab]-NH2 (disulfide 1-7 (inferred); also: homodimer linked by DIG) [SEQ ID NO 97]	≤ 10
Ac-[dK]C[NMeR]SDTLCW[dK]-NH2 (disulfide 2-8 (inferred); also: dimer joined by DIG) [SEQ ID NO 4]	> 10
Ac-[Pen][NMeR]SDTL[Pen]W[dE][Dap]-NH2 (disulfide 1-7 (inferred)) [SEQ ID NO 55]	> 100
[Pen][NMeR]SDTL[Pen][dF]-NH2 (disulfide 1-7 (inferred); not fully specified (N-terminus); printed as DIG-NH2-Pen-(N-Me-R)-S-D-T-L-Pen-f-NH2, disulfide; also: DIG-NH2 at N-terminus, probably DIG-linked dimer) [SEQ ID NO 7]	> 1000
Ac-[Pen][NMeR]SDTL[Pen][Phe(3-carbamoyl)][dE][dK]-NH2 (disulfide 1-7 (inferred); also: homodimer linked by DIG) [SEQ ID NO 99]	> 100
Ac-[Pen][NMeR]SDTL[Pen]WP[dK]-NH2 (disulfide 1-7 (inferred); also: homodimer linked by DIG) [SEQ ID NO 94]	> 100
Ac-[Pen][NMeR]SDTL[Pen][2Nal]E-NH2 (disulfide 1-7 (inferred)) [SEQ ID NO 75]	> 50
Ac-[Pen][NMeR]SDTL[Pen]W[dE][Dab]-NH2 (disulfide 1-7 (inferred)) [SEQ ID NO 56]	> 500
XRSDTLXWK ((Ac-Pen-(N-Me-R)-S-D-T-L-Pen-W-k-OH)2-DIG; disulfide) [SEQ ID NO 76]	> 10
Ac-[Pen][NMeR]SDTL[Pen]W[dE][Dap] (disulfide 1-7 (inferred); also: Ac written after C-terminal Dap, place unclear) [SEQ ID NO 63]	> 1000

Binder	α4β7 cell (Hu) IC50 [nM]
Ac-[Pen][NMeR]SDTL[Pen][Phe(2,4-Cl)][dE][dK]-NH2 (disulfide 1-7 (inferred); also: dimer via DIG) [SEQ ID NO 101]	> 50
Ac-[Pen][NMeR]SDTL[Pen]WE[Dab]-NH2 (disulfide 1-7 (inferred)) [SEQ ID NO 61]	> 1000
Ac-[Pen][NMeR]SDTL[Pen][Phe(3,4-Cl)][dE][dK]-NH2 (disulfide 1-7 (inferred); also: dimer via DIG) [SEQ ID NO 102]	> 100
Ac-[Pen][NMeR]SDTL[Pen][Phe(4-COOH)][dE][dK]-NH2 (disulfide 1-7 (inferred); also: dimer via DIG) [SEQ ID NO 100]	≤ 10
XRSDTLXWK ((Ac-Pen-(N-Me-R)-S-D-T-L-Pen-W-(N-Me-K)-NH2)2-DIG; disulfide) [SEQ ID NO 77]	> 100
Ac-[Pen][NMeR]SDTL[Pen]WD[dK]-NH2 (disulfide 1-7 (inferred); also: homodimer linked by DIG) [SEQ ID NO 87]	> 25
Diglycolyl-C[NMeR]SDTLCW-NH2 (disulfide 1-7 (inferred); not fully specified; printed as DIG-NH2-C-(N-Me-R)-S-D-T-L-C-W-NH2) [SEQ ID NO 6]	> 50
Ac-[Pen][NMeR]SDTL[Pen]WN[dK]-NH2 (disulfide 1-7 (inferred); also: homodimer linked by DIG) [SEQ ID NO 83]	> 50
Ac-[Pen][NMeR]SDTL[Pen]WQ[dK]-NH2 (disulfide 1-7 (inferred); also: homodimer linked by DIG) [SEQ ID NO 82]	> 50
Ac-[Pen][NMeR]SDTL[Pen]W[dP]K-NH2 (disulfide 1-7 (inferred); also: homodimer linked by DIG) [SEQ ID NO 96]	> 50
Ac-[Pen][NMeR]SDTL[Pen]W[dE][Dab] (disulfide 1-7 (inferred); not fully specified (residue 10); printed as Ac-Pen-(N-Me-R)-S-D-T-L-Pen-W-e-Dab-Ac) [SEQ ID NO 64]	> 1000
Ac-[Pen][NMeR]SDTL[Pen]W[dE][dK]-NH2 (disulfide 1-7 (inferred); also: homodimer linked by IDA) [SEQ ID NO 70]	> 25
Ac-[Pen][NMeR]SDTL[Pen]WE[dK] (disulfide 1-7 (inferred); not fully specified (residue 10); printed as Ac-Pen-(N-Me-R)-S-D-T-L-Pen-W-E-k-Ac) [SEQ ID NO 65]	> 10000
Ac-[Pen][NMeR]SDTL[Pen][Phe(4-OMe)][dE][dK]-NH2 (disulfide 1-7 (inferred); also: dimer via DIG) [SEQ ID NO 103]	> 25
Ac-[Pen][NMeR]SDTL[Pen]WF[dK]-NH2 (disulfide 1-7 (inferred); also: homodimer linked by DIG) [SEQ ID NO 85]	≤ 10
Ac-[Pen][NMeR]SDTL[Pen][Tic][dE][dK]-NH2 (disulfide 1-7 (inferred); also: homodimer linked by DIG) [SEQ ID NO 80]	> 50
Ac-[Pen][NMeR]SDTL[Pen]W[dE][dK] (disulfide 1-7 (inferred); not fully specified (residue 10); printed as Ac-Pen-(N-Me-R)-S-D-T-L-Pen-W-e-k-Ac) [SEQ ID NO 66]	> 10000
Ac-[Pen][NMeR]SDTL[Pen]W[dE][dK]-NH2 (disulfide 1-7 (inferred); also: homodimer linked by IDA, IDA-PEG4-Biotine) [SEQ ID NO 72]	> 25
Ac-[Pen][NMeR]SDTL[Pen]W[dY][dK]-NH2 (disulfide 1-7 (inferred); also: homodimer linked by DIG) [SEQ ID NO 92]	> 50
